The record followed here is publication PMC5335332, “Arsenite oxidation regulator AioR regulates bacterial chemotaxis towards arsenite in Agrobacterium tumefaciens GW4” (Scientific Reports, 2017).

The target in data set [1] is T1, Mcp (sensing domain; truncated Mcp).
T1 construct: predicted extracellular sensing domain, aa 43-325, EcoRI-HindIII in pET-28a(+), His-tagged, E. coli, Ni-NTA; one of 20 mcp genes in the genome; Trp residues W44, W166, W254, W308
Briefly: intrinsic tryptophan fluorescence quenching at […] nm. The data set is classed as binding, Agrobacterium tumefaciens. To be noted: 1.0 μM protein, 0-25 μM As(III), 1 h, room temperature.

The test system of data set [2] is T2, AioR DNA-binding domain (HTH) (Agrobacterium tumefaciens GW4), ORF:ca4d298f.
T2 sequence: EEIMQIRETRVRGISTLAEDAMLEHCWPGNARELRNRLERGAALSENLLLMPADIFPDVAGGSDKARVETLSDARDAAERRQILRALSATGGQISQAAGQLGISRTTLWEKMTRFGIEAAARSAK
In words: EMSA. To be noted: 20 mM Tris-HCl pH 7.0, 50 mM NaCl, 1 mM DTT, 10 mM MgCl2, 100 ug/mL BSA; 28 C, 30 min; 6% native PAGE in 1x TGE. In general terms: A gel shift assay detects complexes by their altered migration in electrophoresis.

The test system is the same in data set [3]. In words: competition. To be noted: 20 mM Tris-HCl pH 7.0, 50 mM NaCl, 1 mM DTT, 10 mM MgCl2, 100 ug/mL BSA; 28 C, 30 min; 6% native PAGE in 1x TGE.
Data set [4] has the same test system. In words: DNase I footprinting. To be noted: 20 mM Tris-HCl pH 7.0, 50 mM NaCl, 1 mM DTT, 10 mM MgCl2, 100 ug/mL BSA; 28 C, 30 min; 6% native PAGE in 1x TGE.

As for `O[As](O)O` [As(III)], binding in data set [1] was characterised by a dissociation constant (Kd) of 11 ± 3.02 µM.
In the case of “TACGGAAAGCACAATACGTGTGCGAATGAAACCAGTTTGCAGTGTTCGGATTTCCGAACATCATTGAAATAAATGCCGTTATTTTGTGCAGTATAGATTGATTAATATGTTTTATTTATAATATAAATTTTTGCTACATAGCAGTATTCGGATTTAATCGGAGCCAGCATTTGCTTATTGCTACATATATAAACACCTATAAGCTCTAATATGATTCTTTTATGACAATAATATCGAAAAATTAACTATGCGATCCCAG (double strand) [mcp regulatory region, 259 bp]”, the binding result in data set [2], in data set [3] and in data set [4] was “binds” each time.
As to “TACGGAAAGCACAATACGTGTGCGAATGAAACCAGTTTGCAGTTGTCGGATTTCCGCTTATCATTGAAATAAATGCCGTTATTTTGTGCAGTATAGATTGATTAATATGTTTTATTTATAATATAAATTTTTGCTACATAGCAGTATTCGGATTTAATCGGAGCCAGCATTTGCTTATTGCTACATATATAAACACCTATAAGCTCTAATATGATTCTTTTATGACAATAATATCGAAAAATTAACTATGCGATCCCAG (double strand) [mutant mcp regulatory region]”, the binding result in data set [2] was “no binding”.
The same measure, in the same setting: in the case of “TTTCACGCACGACACTCTGGGAGAAGATGACGCGTTTCGGAATAGAAGCAGCCGCACGTTCGGCCAAATGAACAACGGCGGCGAGACGCTGTTCGGAAAAGCGAACGGGCAACTGGCCATCAAACGGGAAAATATCTATATTTCAGTATTTTAGGAATTGGCATAGCAAT (double strand) [aioBA regulatory region, 170 bp]” it was “binds”.

In general, Kd refers to the free concentration of one partner at which half of the binding sites on the other are occupied at equilibrium, for simple one-to-one binding. A higher Kd goes with a looser complex.
